Measured values reported in patent publication US7148021B2, “Human zona pellucida proteins and methods of their use in diagnosing male infertility” (Eastern Virginia Meical School, priority 2001, dated 2006).

B1: rhZP3: recombinant human zona pellucida protein 3 made by human ovarian cell line PA-1, correctly glycosylated (protein, listed as Homo sapiens)
chain: MELSYRLFICLLLWGSTELCYPQPLWLLQGGASHPETSVQPVLVECQEATLMVMVSKDLFGTGKLIRAADLTLGPEACEPLVSMDTEDVVRFEVGLHECGNSMQVTDDALVYSTFLLHDPRPVGNLSIVRTNRAEIPIECRYPRQGNVSSQAILPTWLPFRTTVFSEEKLTFSLRLMEENWNAEKRSPTFHLGDAAHLQAEIHTGSHVPLRLFVDHCVATPTPDQNASPYHTIVDFHGCLVDGLTDASSAFKVPRPGPDTLQFTVDVFHFANDSRNMIYITCHLKVTLAEQDPDELNKACSFSKPSNSWFPVEGPADICQCCNKGDCGTPSHSRRQPHVMSQWSRSASRNRRHVTEEADVTVGPLIFLDRRGDHEVEQWALPSDTSVVLLGVGLAVVVSLTLTAVILVLTRRCRTASHPVSASE
modifications: recombinant, glycosylated, made in PA-1 cells
notes: recombinant human zona pellucida protein 3 made by human ovarian cell line PA-1, correctly glycosylated

Tests used:
sperm [1] = assay: Weighted acrosome scoring of fluorescence-stained sperm morphology types; format: cell-based, human; settings: for % of Type I (intact acrosome): column drawing 1; for % of Type II (damaged acrosome): column drawing 2; for % of Type III (equatorial segment): column drawing 3; for % of Type IV (no fluorescence in head): column drawing 4
Source text: A representative example of this method is as follows. […] (See Arts et al, 1994 for further details useful for this example).
In a second step, each type is given a score. In this example, Type I has fluorescence in the acrosomal region, indicating intact acrosome; Type II has fluorescence in a clearly damaged acrosome; Type III has fluorescence in the equatorial segment; and Type IV has no detectable fluorescence in the head. Each type, in the representative example is given a score as follow. Type I has 0 points, Type II has 1 point, Type III has 1.5 points and Type IV has 2 points. Of course different numbers of types may be scored and different weighting systems may be used, depending on knowledge of the system used and the conditions and reagents used for scoring each type. In this example, the sperm are examined under a fluorescence microscope and the percentage of each category is recorded. To determine the total AR score, the percentage of each category type is multiplied by the appropriate point and added together as shown in the equation below and in […]

sperm [2] = assay: Percentage of acrosome-reacted sperm as determined by FITC-PSA; format: cell-based, human; settings: NT 30 ng/ml, calcium ionophore 5 μM, rhZP3 30 ng/ml, solubilized zona 0.5 ZP/μl, Mean (±SEM); for % Acrosome reacted-sperm: n = 29 ejaculates
Source text: The acrosome reaction was studied in response to purified rhZP3, natural solubilized human ZP and the calcium ionophore.

[3] = tested on: sperm-zona pellucida binding; assay: Hemizona assay, inhibition of sperm-zona pellucida binding; format: cell-based, human
Source text: Isolation and purification procedures A wide variety of isolation and purification procedures for ZP3, ZP2, ZP1 as whole proteins, glycosylated fragments, complexes, conjugates and as fusion proteins may be used in embodiments of the invention. […] Furthermore, data were obtained that establish the ability of rhZP3 to induce the sperm acrosomal reaction. […] Each of the techniques most preferably uses a human glycosylated ZP3 and/or ZP2 and/or ZP1.
This procedure was used to evaluate recombinant human ZP3 as described above.
The hemizona assay is employed as a parallel assay to evaluate the binding ability of GFP-rhZP3 coated agarose beads. An aliquot of semen is processed as described above. Both sperm and artificial zona are processed as described above. For each hemizona pair, the HZI was calculated as follows: (number of test sperm bound to the hemizona/number of fertile sperm bound to hemizona)×100. […]
A hemizona assay is to be carried out as a parallel assay to evaluate the binding ability of GFP-rhZP3 coated agarose beads. […] After capacitation, sperm sample are ready for use in a HZA. […] The number of sperm tightly bound to the outer surface are counted. For each hemizona pair, the HZI is calculated as follows: (number of test sperm bound to the hemizona/number of fertile sperm bound to hemizona)×100 (Burkman, et al.,1988). […]

human sperm [4] = assay: Acrosome reaction by rhZP3 after sperm capacitation time course; format: cell-based; settings: 30 ng/mL, 4 hours capacitation
Description: The time course study of sperm capacitation in combination with rhZP3 was evaluated. After different periods of capacitation, sperm were treated with rhZP3 (30 ng/ml) for thirty minutes to trigger the acrosome reaction. […] In many embodiments with rhZP3 an approximate 4 hour capacitation time is preferred because at this time frame the sperm are 99% alive as compared to 86%, 82% and 66% of live sperm for 8, 12 and 24 hours of capacitation time respectively. Experiments were performed after 4 hours of capacitation. The ratio of acrosome-reacted spermatozoa increased by 1.5 fold, after incubation with 30 ng/mL rhZP3, as compared to controlled conditions. This increased activity is much stronger than the increased activity produced after incubation with rhZP3 made by CHO cells. The CHO cell product induced a similar percentage of acrosome reaction in human sperm following 24-hour sperm capacitation at a dose of 15–20 ng/μl (van Duin et al, 1994).

human sperm [5] = settings: 30 ng/mL; cited from earlier work
[6] = tested on: sperm-zona pellucida binding; settings: hemizona assay; cited from earlier work

Molecule | AR percentage (sperm [1]) | Score Type I (0 × %) (sperm [1]) | Score Type II (1 × %) (sperm [1]) | Score Type III (1.5 × %) (sperm [1]) | Score Type IV (2 × %) (sperm [1]) | Total AR score (sperm [1]) | % of Type I (intact acrosome) (sperm [1]) | % of Type II (damaged acrosome) (sperm [1]) | % of Type III (equatorial segment) (sperm [1]) | % of Type IV (no fluorescence in head) (sperm [1]) | % Sperm viability (sperm [2]) | % Acrosome reacted-sperm (sperm [2]) | hemizona index, in words [3] | increase of ratio of acrosome-reacted spermatozoa compared to control conditions (human sperm [4]) | live acrosome-reacted sperm (human sperm [5]) | minimally effective dose for sperm-zona pellucida binding inhibition [6]
CNc1ccc2oc(C[C@H]3O[C@@]4(CC[C@H]3C)O[C@H]([C@H](C)C(=O)c3ccc[nH]3)[C@H](C)C[C@H]4C)nc2c1C(=O)O [Calcium ionophore, reference compound] | 32% | 0 | 7 | 27 | 30 | 64 | 60% | 7% | 18% | 15% | 96.5 (2.0) % | 22.5% |  |  |  | 
B1 | 29% | 0 | 12 | 33 | 14 | 59 | 59% | 12% | 22% | 7% |  | 18.3% | dramatically decreasing the hemizona index | 1.5 fold | 19%±4.1% | 30 ng/mL
